The results in this text go back to PMC4314665, “Diversity of two-component systems: insights into the signal transduction mechanism by the Staphylococcus aureus two-component system GraSR” (F1000Research, 2014).

In data set [1] the test system is GraR C (C-terminal DNA-binding domain) (Staphylococcus aureus Mu50). As to the kind of experiment: DNase I footprinting. Particulars: 10 ng 32P-labelled promoter DNA, buffer, salt, pH and temperature not given (as described previously, ref 17).
The test system of data set [2] is GraR (Staphylococcus aureus Mu50). As to the kind of experiment: DNase I footprinting. To be noted: 10 ng 32P-labelled promoter DNA, buffer, salt, pH and temperature not given (as described previously, ref 17).
In data set [3] the target is T1, GraR (Staphylococcus aureus Mu50) (UniProt Q932F1).
T1 sequence: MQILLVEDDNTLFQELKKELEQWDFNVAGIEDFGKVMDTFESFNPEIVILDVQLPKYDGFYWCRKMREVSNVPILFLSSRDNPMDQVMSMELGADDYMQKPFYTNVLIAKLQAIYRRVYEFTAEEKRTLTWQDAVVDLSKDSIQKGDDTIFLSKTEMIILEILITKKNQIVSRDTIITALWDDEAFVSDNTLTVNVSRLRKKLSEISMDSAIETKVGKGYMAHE
As to the kind of experiment: DNase I footprinting. Particulars: 10 ng 32P-labelled promoter DNA, buffer, salt, pH and temperature not given (as described previously, ref 17).

Data set [4] addresses T2, GST-BceS, cytoplasmic region of histidine kinase BceS (62-334) fused to GST (B. subtilis strain 168, UniProt O35044 62-334).
T2 construct: Histidine kinase BceS (334 amino acids), B. subtilis strain 168, cytoplasmic region, residues 62-334; Cloned in pGEX-4T-1; source: E. coli BL21(DE3), purified (glutathione-sepharose); not shown: GST, N-terminal, kept
T2 sequence: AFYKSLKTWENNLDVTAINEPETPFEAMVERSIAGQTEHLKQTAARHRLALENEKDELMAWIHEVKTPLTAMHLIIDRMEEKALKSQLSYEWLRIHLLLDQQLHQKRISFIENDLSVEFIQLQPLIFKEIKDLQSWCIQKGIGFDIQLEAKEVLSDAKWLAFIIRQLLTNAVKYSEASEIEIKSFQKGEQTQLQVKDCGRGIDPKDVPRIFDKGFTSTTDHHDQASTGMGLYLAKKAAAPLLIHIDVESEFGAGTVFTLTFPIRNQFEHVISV
As to the kind of experiment: pull-down; GST-fused bait immobilised on glutathione-sepharose resin in 1 x PBS; prey added at bait:prey ratios of about 1:1 to 1:2, 30 min at room temperature; five to seven washes; elution with 10 mM reduced glutathione in 50 mM Tris pH 8.0; SDS-PAGE. To be noted: both partners purified.

Data set [5] deals with the molecule itself. As to the kind of experiment: SDS-PAGE in the presence and absence of DTT; purified GraX on SDS-PAGE with and without dithiothreitol; data not shown.

By Kd is commonly meant the equilibrium constant for the complex coming apart. The term stoichiometry N denotes the number of molecules, sites or subunits per partner or assembly.

PvraFG promoter: the results for the dissociation constant (Kd) in data set [1] and in data set [2] were 2400 nM and 800 nM, respectively.
As to “GGATCCTTTAGGTTTCATCTAAAATACTCCTTTAAACTGTAACCAAAAAACATATTACTCCACCTTTTAGTTACATATATATTATAATAGTAGCAAATGTTTTAAAATTTCAAAATACTGGAGGCTTTTTATGGCCCATATTATACGTAGAGTTAGTATCAAAGATGTAGAAAATTTCATTTCAATGAATTCCG (double strand) [graSR promoter]”, the binding entry in data set [3] is “no binding”.

B1: BceR, response regulator of Bacillus subtilis (natural protein)
chain: MFKLLLIEDDESLFHEIKDRLTGWSYDVYGIQDFSQVLQEFAAVNPDCVIIDVQLPKFDGFHWCRLIRSRSNVPILFLSSRDHPADMVMSMQLGADDFIQKPFHFDVLIAKIQAMFRRVHHYNTEPSTIKTWCGAAVDAEQNLVSNDKGSVELTKNEMFILKQLIEQKNKIVSREELIRSLWNDERFVSDNTLTVNVNRLRKKLDALQLGAYIETKVGQGYIAKEEDKFYD
notes: Response regulator BceR, B. subtilis strain 168; the bceR gene amplified with primers from the start to the stop codon; no extra amino acids on either terminus; Cloned in pET26b(+), untagged; source: E. coli BL21(DE3), purified (DEAE-Sepharose, heparin-sepharose), up to 90% purity
Take B1: the binding result in data set [4] is “binds”.

B2: GraX, auxiliary protein (tagless) (natural protein)
chain: MKPKVLLAGGTGYIGKYLSEVIENDAELFAISKYPDNKKTDDVEMTWIQCDIFHYEQVVAAMNQIDIAVFFIDPTKNSAKITQSSARDLTLIAADNFGRAAAINQVKKVIYIPGSRYDNETIERLGAYGTPVETTNLVFKRSLVNVELQVSKYDDVRSTMKVVLPKGWTLKNVVNHFIAWMGYTKGTFVKTEKSHDQFKIYIKNKVRPLAVFKIEETADGIITLILLSGSLVKKYTVNQGKLEFRLIKESAVVYIHLYDYIPRLFWPIYYFIQAPMQKMMIHGFEVDCRIKDFQSRLKSGENMKYTK
notes: Auxiliary protein GraX, S. aureus strain Mu50, full length graX gene; Cloned in pET26b between NdeI and HindIII; Dimers seen by SDS-PAGE without DTT; also called untagged GraX; source: E. coli BL21(DE3), purified (SP-Sepharose cation exchange), to 90%
Take B2: the “stoichiometry N” value in data set [5] was determined as 2.
